Results reported in the nanobody polyreactivity screen of Harvey et al. (2022).

assay: yeast display, Sf9 membrane polyspecificity reagent, FACS + sequencing; frameworks hold sequencing errors
How it was run: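 Genes from sorted yeast were amplified by colony PCR, read by MiSeq 2 × 250 sequencing and filtered on CDR length. These cells carried a synthetic nanobody library in Saccharomyces cerevisiae BJ5465 and were sorted by FACS into low and high (top ~1%) gates on anti-HA and streptavidin fluorescence. Polyreactivity is labelled according to the gate of origin.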

Sequence | polyreactivity (PSR sort gate)
QVQLVESGGGLVQAGGSLRLSCAASGFTFRSYAMGWYRQAPGKERELVAGITWRGGRTYYADSVKGRFTISRDNAKNTVYLQMNSLKPEDTAVYYCAVRNASKNRKYYYWGQGTQVTVSS | high polyreactivity
QVQLVESGGGLVQAGGSLRLSCAASGFTFRSYTMGWYRQAPGKERELVAAITSRGTSTYYADSVKGRFTISRDNAKNTVYLQMNSLKPEDTAVYYCADPIYNGYASWQVYYWGQGTQVTVSS | high polyreactivity
QVQLVESGGGLVQAGGSLRLSCAASGFTFRTNAMGWYRQAPGKERELVAAISRSGGSTYYADSVKGRFTISRDNAKNTVYLQMNSLKPEDTAVYYCATVKVSHRRYDYWGQGTQVTLSS | high polyreactivity
QVQLVESGGGLVQAGGSLRLSCAASGFTFRTYAMGWYRQAPGKEREFVAAITTSGGSTYYADSVKGRFTISRDNAKNTVYLQMNSLKPEDTAVYYCAAKKATVVYRMEYWGQGTQVTVSS | high polyreactivity
QVQLVESGGGLVQAGGSLRLSCAASGFTFRTYAMGWYRQAPGKERELVAAISRSGGSTDYADSVKGRFTISRDTAKNTVYLQMNSLKPEHTAVYYCNAVRRAEYDYWGQGTQVTVSS | high polyreactivity
QVQLVESGGGLVQAGGSLRLSCAASGFTFRTYAMGWYRQAPGKVRELVAAITVSGGTYYADSVKGRFTISRDNAKNTVYLQMNSLKPEDTAVYYCTAKRFRTGLDYWGQGTQVTVSS | low polyreactivity
QVQLVESGGGLVQAGGSLRLSCAASGFTFRVYVMGWYREAPGKERELVAGITRTGRTYYADSVKGRFTISRDNAKNTVYLQMNSLKPEDTAVYYCAATRPYSHRDYYYWGQGTQVTVSS | high polyreactivity
QVQLVESGGGLVQAGGSLRLSCAASGFTFRWYTMGWYRQAPGKEREFVAAISSSGGSTYYADSVKGRFTISRDNAKNTVYLQMKSLKPEDTAVYYCARASRGYTYEYWGQGTQVTVSS | high polyreactivity
QVQLVESGGGLVQAGGSLRLSCAASGFTFRYNAMGWYRQAPGKERELVAAITNGGSTYADSVKGRFTISRDNAKNTVYLQMNSLKPEDTAVYYCAADYFVLTYYLWCYSPYKSFYYWGQGTQVTVSS | low polyreactivity
QVQLVESGGGLVQAGGSLRLSCAASGFTFRYNAMGWYRQAPGKERELVAGISWTSGSTYYADSVKGRFTISRDNAKNTVYLQMNSLKPEDTAVYYCAAYYRRDAALYGYWGQGTQVTVSS | high polyreactivity
QVQLVESGGGLVQAGGSLRLSCAASGFTFRYNAMGWYRQAPGKERELVATISWRGTSTYYADSVKGRFTISRDNAKNTVYLQMNSLKPEDTAVYYCAALGTVGYDYWGQGTQVTVSS | low polyreactivity
QVQLVESGGGLVQAGGSLRLSCAASGFTFRYNTMGGYRQAPGKERELVAAISSSGSSTYYADSVKGRFTISRDNAKNTVYLQMNSLKPEDTAVYYCNAVHRRTRYGYWGQGTQVTVSS | high polyreactivity
QVQLVESGGGLVQAGGSLRLSCAASGFTFRYYAMGWSRQAPGKERELVARITSGGSTNYADSVKGRFTISRDNAKNTVYLQMNSLKPEDTAVYYCAASPYRYWRMYSWGQGTQVTVSS | high polyreactivity
QVQLVESGGGLVQAGGSLRLSCAASGFTFRYYAMGWYRPAPGKEREFVAAISKSGGTTDYADSVKGRFTISRDNAKNTVYLQMSSLKPEDTAVYYCAKSGGRLWYVWRRYGYWGQGTQVTVSS | high polyreactivity
QVQLVESGGGLVQAGGSLRLSCAASGFTFRYYAMGWYRPAPGKERELVATISRGGSTNYADSVKGRFTISRDNAKNTVYLQMNSLKPEDTAVYYCNARIYKGYNYWGQGTQVTVSS | high polyreactivity
QVQLVESGGGLVQAGGSLRLSCAASGFTFRYYAMGWYRQAPGKEREFVAAISWDGGITYYADSVKGRFTISRDNAKNTVYLQMNSLKPEDTAVYYCAADVIWESDYWGQGTQVTVSS | high polyreactivity
QVQLVESGGGLVQAGGSLRLSCAASGFTFRYYAMGWYRQAPGKERELVAAISWSGGSTYYADSVKGRFTISRDNAKNTVYLQMNSLKPEDTAVYYCNAYAYYSHGVTTTYDYWGQGTQVTVSS | high polyreactivity
